# B1: hyaluronan and proteoglycan link protein 1 (protein, UniProt P10915 16-354, looked up)
# Hyaluronan and proteoglycan …: DHLSDNYTLDHDRAIHIQAENGPHLLVEAEQAKVFSHRGGNVTLPCKFYRDPTAFGSGIHKIRIKWTKLTSDYLKEVDVFVSMGYHKKTYGGYQGRVFLKGGSDSDASLVITDLTLEDYGRYKCEVIEGLEDDTVVVALDLQGVVFPYFPRLGRYNLNFHEAQQACLDQDAVIASFDQLYDAWRGGLDWCNAGWLSDGSVQYPITKPREPCGGQNTVPGVRNYGFWDKDKSRYDVFCFTSNFNGRFYYLIHPTKLTYDEAVQACLNDGAQIAKVGQIFAAWKILGYDRCDAGWLADGSVRYPISRPRRRCSPTEAAVRFVGFPDKKHKLYGVYCFRAYN
# notes: extracellular matrix protein found in cartilage; stabilizes aggregates of hyaluronic acid and proteoglycans
# Assays:
# TβRII = TβRII protein after exogenous HAPLN1 and/or HA in endogenous HAPLN1-deficient human hair germinal matrix cells; format: cell-based; conditions: after HAPLN1 siRNA; HAPLN1 25 ng/mL and/or HA 25 μg/mL; TGF-β2 2 ng/mL, 23 hours
# Description: The human hair germinal matrix cells were dispensed into a poly-D-lysine 6-well plate at a concentration of 5.0×10^4 per well and cultured for 24 hours. After 24 hours, the medium was removed and replaced with a low-serum medium. HAPLN1 siRNA and scrambled siRNA were added at a concentration of 25 pmol per well and incubated for 24 hours. After the siRNA and the medium were all removed, the medium was replaced with a serum-free medium having HAPLN1 (25 ng/mL) or HA (25 μg/mL) added thereto, and cultured for 1 hour. TGF-β2 (2 ng/mL) was treated and incubated for 23 hours. After collecting cells, a lysis buffer (25 mM Tris-HCl, 1 mM EDTA, 0.1% Triton-X100, phosphatase inhibitor, and protease inhibitor) was added, and all the cells were broken through sonication. TβRII in the sample was measured using Western blotting. The optical density of TβRII was compared to that of GAPDH using a densitometer.
# HAS2 = HAS2 protein in human hair germinal matrix cells deficient in endogenous HA (4-MU); format: cell-based; conditions: 4-MU-treated cells; HAPLN1 25 ng/mL; TGF-β2 2 ng/mL
# Description: 4-MU (4-methylumbelliferone) is an inhibitor of HA-producing hyaluronan synthase 2 (HAS2), which produces HA. In order to confirm the effect of HA produced in cells, HA production in cells was inhibited using 4-MU.
# The human hair germinal matrix cells, in which the endogenous HA was inhibited by treating 4-MU, were dispensed into a poly-D-lysine 6-well plate at a concentration of 5.0×10^4 per well and cultured for 24 hours. After 24 hours, the medium was removed and replaced with a new serum-free medium. HAPLN1 was treated with 25 ng/mL, and after 1 hour, TGF-β2 (2 ng/mL) was treated. After 23 hours, cells were collected, a lysis buffer (25 mM Tris-HCl, 1 mM EDTA, 0.1% Triton-X100, phosphatase inhibitor, and protease inhibitor) was added, and all the cells were broken through sonication. HAS2 and TβRII in the sample were measured using Western blotting. The optical density of each of HAS2 and TβRII was compared to that of GAPDH using a densitometer.
molecule,measurement,setting,value
B1,TβRII protein in endogenous HAPLN1-deficient cells,TβRII,recovered
same,HAS2 level,HAS2,recovered

# — patent US20220202899A1, “COMPOSITION FOR PREVENTION OR TREATMENT OF HAIR LOSS INCLUDING HAPLN1” (HAPLNSCIENCE INC., priority 2019, published 2022)
